From publication PMC5180188, “Structural Insights on PHA Binding Protein PhaP from Aeromonas hydrophila” (Scientific Reports, 2016)

Target: the molecule itself
Experiment: SEC + other: dynamic light scattering; Superdex 200 in 50 mM Tris pH 8.0, 500 mM NaCl; DLS at 0.5 mg/ml in aqueous buffer

B1: PhaPAh (PHA binding protein PhaP, a phasin, from Aeromonas hydrophila strain 4AK4) (natural protein, UniProt O32470 1-116, looked up)
chain: MNMDVIKSFTEQMQGFAAPLTRYNQLLASNIEQLTRLQLASANAYAELGLNQLQAVSKVQDTQSLAALGTVQLETASQLSRQMLDDIQKLSALGQQFKEELDVLTADGIKKSTGKA
notes: PhaP (phasin) of Aeromonas hydrophila strain 4AK4, UniProtKB O32470, residues 1-116; called full-length in the methods; Cloned in pGEX-6P-1; residues left by PreScission cleavage are not described; Phasing used a (Ta6Br12)2+ soaked crystal and a selenomethionine-labelled crystal; the final model is of the native crystal; also called wild type; wild-type PhaPAh; not shown: GST, N-terminal, cleaved
**Q.** With B1 as the protein, how does the “stoichiometry N” value read?
**A.** 4
